Sequences and labels used below:
B1: Protein ERGIC-53 (Homo sapiens), P49257 (parent)
chain: MAGSRQRGLRARVRPLFCALLLSLGRFVRGDGVGGDPAVALPHRRFEYKYSFKGPHLVQSDGTVPFWAHAGNAIPSSDQIRVAPSLKSQRGSVWTKTKAAFENWEVEVTFRVTGRGRIGADGLAIWYAENQGLEGPVFGSADLWNGVGIFFDSFDNDGKKNNPAIVIIGNNGQIHYDHQNDGASQALASCQRDFRNKPYPVRAKITYYQNTLTVMINNGFTPDKNDYEFCAKVENMIIPAQGHFGISAATGGLADDHDVLSFLTFQLTEPGKEPPTPDKEISEKEKEKYQEEFEHFQQELDKKKEEFQKGHPDLQGQPAEEIFESVGDRELRQVFEGQNRIHLEIKQLNRQLDMILDEQRRYVSSLTEEISKRGAGMPGQHGQITQQELDTVVKTQHEILRQVNEMKNSMSETVRLVSGMQHPGSAGGVYETTQHFIDIKEHLHIVKRDIDNLVQRNMPSNEKPKCPELPPFPSCLSTVHFIIFVVVQTVLFIGYIMYRSQQEAAAKKFF
partner: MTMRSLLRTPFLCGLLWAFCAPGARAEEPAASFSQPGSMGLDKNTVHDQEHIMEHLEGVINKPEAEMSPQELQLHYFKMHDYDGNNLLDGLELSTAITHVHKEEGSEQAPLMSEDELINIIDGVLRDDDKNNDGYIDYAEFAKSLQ
B2: Multiple coagulation factor deficiency protein 2 (Homo sapiens), Q8NI22 (parent)
chain: B1 partner
partner: B1 chain

The first test covers variants of B1. As to conditions: with mcfd2_human MCFD2, Q8NI22.
R45A: the “effect of a mutation on the interaction” value is “decreasing interaction”.

In the next test the parent is B2. The following applies: with lman1_human LMAN1, P49257.
For the variant D89A, the “effect of a mutation on the interaction” value is on record as “disrupting interaction”.

Variants of B2 are the subject of another test. As to conditions: with lman1_human LMAN1, P49257. The source holds these as a separate data set.
On to D122V, for which the “effect of a mutation on the interaction” value is recorded as “disrupting interaction”.

Variants of B2 are the subject of another test. As to conditions: with lman1_human LMAN1, P49257. This is another data set of the same source.
On to D122V, for which the “effect of a mutation on the interaction” value is “decreasing interaction”.
